According to patent US20240383992A1 (ORICELL THERAPEUTICS, published 2024):
Numbering of substitutions follows the chain as printed.

T1: BCMA expressed on MM1s cells (UniProt Q02223 1-184, limits assumed)
T1 sequence (looked up): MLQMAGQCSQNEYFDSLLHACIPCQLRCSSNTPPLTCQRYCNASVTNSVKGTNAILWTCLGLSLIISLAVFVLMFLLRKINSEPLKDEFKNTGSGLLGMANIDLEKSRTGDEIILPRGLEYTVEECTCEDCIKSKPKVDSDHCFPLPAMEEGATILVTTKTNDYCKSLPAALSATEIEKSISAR

B1: hBCMA-17 CAR (other)
chain: EIVLTQSPATLSLSPGERATLSCRASESVSVSGIHLLHWYQQKPGQAPRLLIYLGRNRAAGIPARFSGSGSGTDFTLTISSLEPEDAAIYYCLQSRRFPRHFGQGTKLEIKGSTSGSGKPGSGEGSTKGQVQLVQSGAEVKKPGASVKVSCKASGYTFADYTINWVRQATGQGLEWMGWINTETREPTYAYDFRSRFTFTLNTSISTAYLELSSLRSEDTAVYYCARDIRYVMDYWGQGTLVTVSSTTTPAPRPPTPAPTIASQPLSLRPEACRPAAGGAVHTRGLDFACDIYIWAPLAGTCGVLLLSLVITLYCKRGRKKLLYIFKQPFMRPVQTTQEEDGCSCRFPEEEEGGCELRVKFSRSADAPAYQQGQNQLYNELNLGRREEYDVLDKRRGRDPEMGGKPRRKNPQEGLYNELQKDKMAEAYSEIGMKGERRRGKGHDGLYQGLSTATKDTYDALHMQALPPR
B2: hBCMA-22 CAR (other)
chain: B1 chain with S32P, H35S, L36F, L37I, R56S, A59P, A60S, T188A, S195G
B3: hBCMA-23 CAR (other)
chain: B1 chain with S32P, H35S, L36F, L37I, R56S, A59P, A60S
B4: hBCMA-19 CAR (other)
chain: B1 chain with S32P, H35S, L36F, L37I, T188A, S195G
B5: hBCMA-20 CAR (other)
chain: B1 chain with S32P, H35S, L36F, L37I

Each binder was assayed against T1, BCMA expressed on MM1s cells (assay: cell-based or functional assay).

Binder | killing toxicity against the target cell at effector-to-target ratio 1:1 [%] | killing toxicity against the target cell at effector-to-target ratio 3:1 [%]
B1 | > 20 | > 70
B2 | > 20 | > 70
B3 | > 20 | > 70
B4 | > 20 | > 70
B5 | > 20 | > 70
